This is an account of results in patent publication US11479791B2, “Tools and methods for expression of membrane proteins” (VIB VZW, priority 2012, dated 2022).

One test concerns the target T1, β2-adrenergic receptor (Mesocricetus auratus, UniProt P04274).
T1 construct: expressed in transfected cells
Nature of the test: Purification of β2AR-Nanobody complex from HEK293S cells by Ni2+ affinity chromatography. In kind it is binding. The settings on record: upon the addition of the antagonist alprenolol hydrochloride; FIG. 10. From the text:
The same technique as in Example 4 can be used using a Nanobody that binds an intracellular epitope of the membrane protein. Nanobody CA2780 (amino acid sequence: SEQ ID NO:5; Nucleotide sequence: SEQ ID NO:23) is an example of a Nanobody that binds an intracellular epitope of the β2-adrenergic receptor and that stabilizes the receptor in its active conformation (Rasmussen et al., 2011, Nature 469: 175). We transformed a HEK293 cell line that has a stable inducible β2AR expression with the pCAGGSNbCA2780-plasmid (see Material and Methods section) for transient expression. This Nanobody is not fused to a secretion signal and, therefore, resides in the cytosol upon expression, to allow interaction with the intracellular side of the membrane protein. Nanobody CA2780 has a hexaHis-tag and can, therefore, be purified using Ni^2+ affinity chromatography. […] In this way we strongly enrich for the receptor fraction that is in a well-folded state, because the Nanobody can only bind the receptor when it is in its native fold. This step strongly increases homogeneity in a membrane protein sample going to f.e. crystallization trials. If necessary, a subsequent purification using anti-Rho1D4 affinity chromatography can further enrich the sample for the receptor. […]

Test [1] deals with T2, human CXCR4 receptor (hCXCR4Rho1D4) (Homo sapiens, UniProt P61073).
T2 construct: expressed in transfected cells; host or cells: Pichia pastoris GS115
Put plainly: hCXCR4-Nb co-expression in P. pastoris GS115; anti-Rho1D4 immunoblot of membrane protein, quantified by Odyssey software. In kind it is cell-based. Particulars: for change of hCXCR4 receptor expression upon Nb co-expression (in words): immunoblot, versus GS115hCXCR4 clone without Nb co-expression. As to the method: An hCXCR4 expressing Pichia clone was transformed with the four linearized Nanobody expressing vectors as described before. Twenty-four positive clones (six per Nb) were analyzed for protein expression. Growth conditions and membrane protein sample preparations were done as previously described. Equal amounts of total membrane protein (determined by a BCA assay) of induced P. pastoris GS115 clones, expressing only the human CXCR4 receptor, or in combination with one of the anti-hCXCR4 Nanobodies, were run on a 12% SDS-PAGE gel and blotted on a nitrocellulose membrane. The blot was developed with a primary mouse anti-Rho1D4 monoclonal antibody and a secondary Dylight (800 nm) goat anti-mouse IgG on an LI-COR odyssey system. […] The quantification was performed by the Odyssey software by measuring relative fluorescent signals (Table 3).
An hCXCR4 expressing Pichia clone was transformed with the linearized Nanobody expressing vector as described before. Three positive clones were analyzed for protein expression. Growth conditions and membrane protein sample preparations were done as previously described. Equal amounts of total membrane protein (determined by a BCA assay) of induced P. pastoris GS115 clones, expressing only the human CXCR4 receptor, or in combination with a anti-hCXCR4 Nanobody (NbCA4142), or in combination with the negative control Nanobody (NbCA4910), were run on a 12% SDS-PAGE gel and blotted on a nitrocellulose membrane. The blot was developed with a primary mouse anti-Rho1D4 monoclonal antibody and a secondary Dylight (800 nm) goat anti-mouse IgG on an LI-COR odyssey system. For the hCXCR4-specific Nb co-expressing clone we detect more of the anti-Rho1D4 immunoreactive membrane protein band compared to the GS115hCXCR4 clone without Nb co-expression. […] Exact quantification has been calculated by the Odyssey software by measuring relative fluorescent signals (Table 4). It can, thus, be concluded that the increase in receptor expression can be attributed to the Nanobody-specific interaction with the receptor.
Stable positive clones were typically grown in 2 ml (24-well format) or 12.5 ml (shake-flasks) BMGY medium for 48 hours (250 rpm; 28° C.). The cells were harvested by centrifugation and resuspended in the same amount of BMMY medium (1% methanol; 0.5% of methanol was added after 12 hours to maintain induction). After 24 hours the cells were harvested for membrane protein preparations (analysis of hCXCR4 expression and intracellular Nb retention) and the supernatant was used for analysis of extracellular protein expression on SDS-PAGE (Nanobodies).
The cell pellet corresponding to 1 ml of saturated yeast culture (OD600 60-80) was suspended in 1 ml of PBS+Protease inhibitor (Roche). Together with 200 μl of acid washed glass beads, the samples were vortexed heavily at 4° C. for 2×5 minutes. Glass beads, cell debris and intact cells were removed by centrifugation at 2000 rpm (5 min; 4° C.). The supernatant was kept as such or was centrifuged for 45 minutes at 13,000 rpm in a desktop centrifuge at 4° C. The supernatant, cytosolic fraction was discarded and the pellet fraction was re-dissolved in the same amount of fresh PBS+PI by sonication until a homogenous sample was obtained.
Total membrane protein concentration was determined by the BCA protein assay kit (Pierce, Thermo Scientific).
Protein samples were analyzed by SDS-poly-acrylamide gel electrophoresis, according to the Laemmli (Laemmli et al., 1970, Nature, 227:680) or the Tricine method (Schägger et al., 2006, Nat. Protoc. 1:16-22). Before loading on gel, the samples were mixed with 5× Laemmli (60 mM Tris-HCl pH 6.8; 2% SDS, 10% glycerol, 5% β-ME; 0.01% bromophenol blue) and heated for 10 minutes at 95° C. (only the ECM samples, not the membrane protein preparations). Prestained protein markers in the range of 10-250 kDa, Precision Plus protein standards (Bio-Rad), were used as molecular standards. […]
(In western blotting, separated proteins are transferred to a membrane and probed.)

The target of the next test is T3, hCXCR4 receptor (Homo sapiens, UniProt P61073).
T3 construct: made in house; host or cells: Pichia pastoris GS115 co-expressing clone
Nature of the test: Purification of hCXCR4-Nanobody complex from co-expressing P. pastoris clone by Ni2+ affinity chromatography. In kind it is binding. The settings on record: DDM-solubilized membrane protein of co-expressing clone; FIG. 9. An excerpt:
In this way we only purify the receptor fraction that is in a well-folded state, because the Nanobody can only bind the receptor when it is in its native fold. This step strongly increases homogeneity in a membrane protein sample which is useful, for example, for crystallization. […] In case an even more pure sample is required, an extra step of affinity chromatography can be performed using an anti-Rho1D4 affinity matrix, which targets the hCXCR4 part of the complex.
The cell pellet corresponding to 1 L of saturated yeast culture (OD600 60-80) was resuspended in a 1:1 (w/v) ratio of buffer A (1×PBS+Protease inhibitors). Together with 190 g of glass beads, the suspension was brought in the precooled DYNO®-MILL mixing chamber and cells were crushed for 5 minutes. The lysate was centrifuged for 10 minutes at 2,000 rpm (Sorvall F10S-6X500Y rotor) at 4° C. to remove cell debris and intact cells. The supernatant was centrifuged for an hour at 13,000 rpm (Sorvall F10S-6X500Y rotor) at 4° C. to pellet the membrane proteins. The pellet was resuspended in 10 ml buffer A with 1% DDM (n-Dodecyl β-D-maltoside) and put on a rotor for three hours at 4° C. to allow membrane protein solubilization. After solubilization, the solution is centrifuged for one hour at 13,000 rpm (Sorvall SS-34 rotor) at 4° C. to remove unsolubilized membrane proteins. […]

[2] abbreviates: Table 3, anti-Rho1D4 immunoreactive hCXCR4 band, average of two independent experiments.
Where [3] appears, read: Table 3, corrected for GS115 negative control.
The mark [4] stands for this setting: Table 4, co-expressing clone cl1.
[5] abbreviates: Table 4, co-expressing clone cl2.
The mark [6] stands for this setting: Table 4, co-expressing clone cl3.

T2 sequence (P61073 with tags, fused parts or gaps isoform P61073-2): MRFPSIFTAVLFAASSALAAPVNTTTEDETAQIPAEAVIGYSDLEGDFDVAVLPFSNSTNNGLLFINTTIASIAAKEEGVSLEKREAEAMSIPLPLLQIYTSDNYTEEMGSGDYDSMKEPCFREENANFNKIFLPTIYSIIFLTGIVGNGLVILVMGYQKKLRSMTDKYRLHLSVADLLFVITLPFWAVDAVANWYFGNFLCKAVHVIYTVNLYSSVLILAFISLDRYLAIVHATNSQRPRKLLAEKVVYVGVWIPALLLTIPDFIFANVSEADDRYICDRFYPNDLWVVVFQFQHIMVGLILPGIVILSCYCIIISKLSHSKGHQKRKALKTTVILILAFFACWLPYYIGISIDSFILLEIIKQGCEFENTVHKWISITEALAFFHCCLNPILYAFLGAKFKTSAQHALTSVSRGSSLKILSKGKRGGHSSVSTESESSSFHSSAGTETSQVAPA
T1 sequence (P04274 whole entry): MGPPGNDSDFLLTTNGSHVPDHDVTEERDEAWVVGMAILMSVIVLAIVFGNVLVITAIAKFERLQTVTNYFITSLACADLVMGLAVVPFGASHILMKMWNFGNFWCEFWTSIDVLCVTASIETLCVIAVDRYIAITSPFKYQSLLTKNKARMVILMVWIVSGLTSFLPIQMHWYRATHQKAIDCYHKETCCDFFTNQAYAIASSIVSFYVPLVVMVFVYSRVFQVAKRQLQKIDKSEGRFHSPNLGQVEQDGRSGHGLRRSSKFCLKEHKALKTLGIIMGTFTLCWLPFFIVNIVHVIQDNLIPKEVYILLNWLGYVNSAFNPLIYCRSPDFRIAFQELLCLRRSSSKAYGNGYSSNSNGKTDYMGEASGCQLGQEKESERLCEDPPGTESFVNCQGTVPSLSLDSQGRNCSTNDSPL
T3 sequence (P61073 with tags, fused parts or gaps isoform P61073-2): as the sequence (P61073 with tags, fused parts or gaps isoform P61073-2) above

B1: NbCA2780: Nanobody that binds an intracellular epitope of the β2-adrenergic receptor and stabilizes its active conformation (Rasmussen et al., 2011), SEQ ID NO:5 (protein, listed as Lama glama)
VHH: MEVQLQESGGGLVQAGGSLRLSCAASGSIFSINTMGWYRQAPGKQRELVAAIHSGGSTNYANSVKGRFTISRDNAANTVYLQMNSLKPEDTAVYYCNVKDYGAVLYEYDYWGQGTQVTVSSAAAHHHHHH
In the case of B1, the “interaction between receptor and Nanobody (complex purified by Ni2+ affinity chromatography)” value with β2-adrenergic receptor is listed as “strong interaction”.

B2: NbCA4140: Nanobody directed against the extracellular side of the human CXCR4 receptor, SEQ ID NO:1, His6 tag (protein, listed as Lama glama)
VHH: QVQLQESGGGLVQPGGSLRLSCAASGSIFSINAMGWYRQAPGKQRELVAAITSGGSTNYADSVKGRFTISRDNAENTVYLQMNNLKPEDTAVYSCNAEGTSGSSRYRRRYEYWGKGTQVTVSSHHHHHH
modifications: His6 tag
For B2, the Fluorescent units in test [1] (setting [2]) was 39.95 fluorescent units. In addition, the Blank corrected in test [1] (setting [3]) came out at 36.61 fluorescent units.

B3: NbCA4500: Nanobody directed against the extracellular side of the human CXCR4 receptor, SEQ ID NO:4, His6 tag (protein, listed as Lama glama)
VHH: QVQLQESGGGLVQAGGSLRLSCAASGSTSGIIAMGWYRQAPGKQRELVARISSGSSTNYADSVKGRFTVSRDNAKNTVYLQMNSLKPEDTAVYYCNAVRRGYRNDYNSWGQGTQVTVSSHHHHHH
modifications: His6 tag
For the molecule B3, the Fluorescent units in test [1] (setting [2]) is 21.59 fluorescent units. Besides, in test [1] (setting [3]), the Blank corrected was found to be 18.25 fluorescent units. For the same molecule, in test [1], the “change of hCXCR4 receptor expression upon Nb co-expression (in words)” value (“change” for short) is “slight increase”.

B4: NbCA4143: Nanobody directed against the extracellular side of the human CXCR4 receptor, SEQ ID NO:3, His6 tag (protein, listed as Lama glama)
VHH: QVQLQESGGGLVQPGGSLRLSCAASGFTFSSYAMSWVRQAPGKGLEWVSTINSGGRSANYADSVKGRLTISRDNAKNTLHLQMNSLKPEDTALYYCARPRSVSRNYVPLGYDYLGQGTQVTVSSHHHHHH
modifications: His6 tag
Regarding B4, the Fluorescent units in test [1] (setting [2]) stood at 41.06 fluorescent units. Besides, in test [1] (setting [3]), the Blank corrected amounted to 37.72 fluorescent units.

B5: NbCA4910: negative control Nanobody which does not recognize the hCXCR4, SEQ ID NO:6 (protein, listed as Lama glama)
VHH: QVQLVESGGGLVQPGGSLRLSCAASGSFRSIVSMAWYRQAPGKQRELVASSNSGGSTNYADSVKGRFTISRDNAKNTVYLQMNSLKPEDTAVYWCNVQNRLPGFDAFSGRSIAETYWGQGTQVTVSSAAAHHHHHH
Consider B5, for which the Blank corrected in test [1] (setting [4]) came out at 6.56 fluorescent units; in test [1] (setting [5]) it was 17.89 fluorescent units; in test [1] (setting [6]), 19.49 fluorescent units. Further, the results for the Fluorescent units in test [1] (setting [4]), in test [1] (setting [5]) and in test [1] (setting [6]) were 8.97 fluorescent units, 20.30 fluorescent units and 21.90 fluorescent units, respectively. The “change” value in test [1] is “no increase in the receptor expression”.

B6: NbCA4142: Nanobody directed against the extracellular side of the human CXCR4 receptor, SEQ ID NO:2, His6 tag (protein, listed as Lama glama)
VHH: QVQLQESGGGLVRTGGSLRLSCAGSGSFFSINPMGWYRQAPGQQRELVATITGSGSTNYADSVKGRFTISRDNAKNTLYLQMNSLKPEDTAVYYCNAGYFDRIGRRYDRWGQGTQVTVSSHHHHHH
modifications: His6 tag
Take B6: the Fluorescent units in test [1] (setting [2]) worked out at 35.81 fluorescent units; in test [1] (Table 4, control experiment) it was 32.76 fluorescent units. Also, the Blank corrected in test [1] (setting [3]) is 32.47 fluorescent units; in test [1] (Table 4, control experiment, corrected for GS115 negative control), 30.35 fluorescent units. The “change” value in test [1] is reported as “more”. In addition, the “retention of the receptor on Ni2+ affinity column via hexaHis-tagged Nanobody” value with hCXCR4 receptor is listed as “strong retention of the receptor”.
